Ends that are not written are not given here.

In one assay the target is rNaV1.3 channels (rat, UniProt P08104 1-1951). The experiment in a line: cell-based or functional assay.
The target of a further assay is rNaV1.8 channels (rat, UniProt Q62968 1-1956). Nature of the assay: cell-based or functional assay.
rNaV1.8 channels, sequence (Q62968 whole entry): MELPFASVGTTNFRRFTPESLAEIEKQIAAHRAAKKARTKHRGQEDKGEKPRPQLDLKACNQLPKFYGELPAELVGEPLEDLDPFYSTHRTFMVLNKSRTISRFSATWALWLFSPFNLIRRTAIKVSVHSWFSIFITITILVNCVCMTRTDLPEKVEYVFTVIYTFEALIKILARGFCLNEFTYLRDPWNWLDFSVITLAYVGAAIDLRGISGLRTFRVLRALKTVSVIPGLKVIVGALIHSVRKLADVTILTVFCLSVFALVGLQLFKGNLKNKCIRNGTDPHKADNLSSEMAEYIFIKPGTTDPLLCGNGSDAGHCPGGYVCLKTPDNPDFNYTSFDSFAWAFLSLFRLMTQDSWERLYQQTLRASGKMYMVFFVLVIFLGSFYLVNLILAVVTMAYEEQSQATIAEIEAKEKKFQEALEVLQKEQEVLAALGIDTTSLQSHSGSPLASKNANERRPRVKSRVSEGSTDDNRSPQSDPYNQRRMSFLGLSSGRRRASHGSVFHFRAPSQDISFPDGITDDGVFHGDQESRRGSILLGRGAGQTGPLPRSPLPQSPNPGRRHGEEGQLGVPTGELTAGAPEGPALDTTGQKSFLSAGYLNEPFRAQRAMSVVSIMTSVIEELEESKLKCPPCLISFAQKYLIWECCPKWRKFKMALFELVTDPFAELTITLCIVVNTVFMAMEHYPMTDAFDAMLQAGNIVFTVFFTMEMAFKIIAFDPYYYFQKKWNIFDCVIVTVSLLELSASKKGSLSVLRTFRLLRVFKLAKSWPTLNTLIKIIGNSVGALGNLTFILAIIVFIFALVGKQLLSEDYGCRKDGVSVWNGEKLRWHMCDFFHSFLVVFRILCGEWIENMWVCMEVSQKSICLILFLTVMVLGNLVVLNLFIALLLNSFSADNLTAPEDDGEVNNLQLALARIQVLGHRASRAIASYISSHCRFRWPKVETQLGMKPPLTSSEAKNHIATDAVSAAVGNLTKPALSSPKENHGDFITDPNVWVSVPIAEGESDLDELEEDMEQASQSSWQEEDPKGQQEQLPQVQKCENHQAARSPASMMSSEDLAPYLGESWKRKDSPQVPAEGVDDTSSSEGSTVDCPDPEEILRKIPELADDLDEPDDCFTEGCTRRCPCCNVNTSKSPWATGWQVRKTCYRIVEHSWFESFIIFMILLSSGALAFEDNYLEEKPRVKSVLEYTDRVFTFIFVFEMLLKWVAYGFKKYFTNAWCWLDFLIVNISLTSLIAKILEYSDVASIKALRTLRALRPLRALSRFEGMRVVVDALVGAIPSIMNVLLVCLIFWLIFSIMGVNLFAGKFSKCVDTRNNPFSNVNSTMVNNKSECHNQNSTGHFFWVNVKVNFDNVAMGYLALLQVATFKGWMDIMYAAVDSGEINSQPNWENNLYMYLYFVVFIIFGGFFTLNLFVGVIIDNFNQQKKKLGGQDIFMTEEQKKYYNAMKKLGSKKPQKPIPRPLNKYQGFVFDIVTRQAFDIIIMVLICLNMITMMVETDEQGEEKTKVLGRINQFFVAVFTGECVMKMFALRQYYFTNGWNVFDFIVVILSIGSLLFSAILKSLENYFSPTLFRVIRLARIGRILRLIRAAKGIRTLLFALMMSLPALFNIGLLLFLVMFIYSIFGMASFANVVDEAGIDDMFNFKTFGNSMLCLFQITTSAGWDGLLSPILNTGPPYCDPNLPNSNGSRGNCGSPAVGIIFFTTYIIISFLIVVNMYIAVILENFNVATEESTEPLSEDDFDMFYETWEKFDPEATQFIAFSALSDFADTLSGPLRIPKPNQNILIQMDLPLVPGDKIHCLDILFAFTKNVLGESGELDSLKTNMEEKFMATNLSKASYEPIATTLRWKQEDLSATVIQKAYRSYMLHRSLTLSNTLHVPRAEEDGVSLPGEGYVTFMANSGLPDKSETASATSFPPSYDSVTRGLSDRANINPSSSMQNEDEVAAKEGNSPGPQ

rNaV1.3 channels, sequence (P08104 whole entry): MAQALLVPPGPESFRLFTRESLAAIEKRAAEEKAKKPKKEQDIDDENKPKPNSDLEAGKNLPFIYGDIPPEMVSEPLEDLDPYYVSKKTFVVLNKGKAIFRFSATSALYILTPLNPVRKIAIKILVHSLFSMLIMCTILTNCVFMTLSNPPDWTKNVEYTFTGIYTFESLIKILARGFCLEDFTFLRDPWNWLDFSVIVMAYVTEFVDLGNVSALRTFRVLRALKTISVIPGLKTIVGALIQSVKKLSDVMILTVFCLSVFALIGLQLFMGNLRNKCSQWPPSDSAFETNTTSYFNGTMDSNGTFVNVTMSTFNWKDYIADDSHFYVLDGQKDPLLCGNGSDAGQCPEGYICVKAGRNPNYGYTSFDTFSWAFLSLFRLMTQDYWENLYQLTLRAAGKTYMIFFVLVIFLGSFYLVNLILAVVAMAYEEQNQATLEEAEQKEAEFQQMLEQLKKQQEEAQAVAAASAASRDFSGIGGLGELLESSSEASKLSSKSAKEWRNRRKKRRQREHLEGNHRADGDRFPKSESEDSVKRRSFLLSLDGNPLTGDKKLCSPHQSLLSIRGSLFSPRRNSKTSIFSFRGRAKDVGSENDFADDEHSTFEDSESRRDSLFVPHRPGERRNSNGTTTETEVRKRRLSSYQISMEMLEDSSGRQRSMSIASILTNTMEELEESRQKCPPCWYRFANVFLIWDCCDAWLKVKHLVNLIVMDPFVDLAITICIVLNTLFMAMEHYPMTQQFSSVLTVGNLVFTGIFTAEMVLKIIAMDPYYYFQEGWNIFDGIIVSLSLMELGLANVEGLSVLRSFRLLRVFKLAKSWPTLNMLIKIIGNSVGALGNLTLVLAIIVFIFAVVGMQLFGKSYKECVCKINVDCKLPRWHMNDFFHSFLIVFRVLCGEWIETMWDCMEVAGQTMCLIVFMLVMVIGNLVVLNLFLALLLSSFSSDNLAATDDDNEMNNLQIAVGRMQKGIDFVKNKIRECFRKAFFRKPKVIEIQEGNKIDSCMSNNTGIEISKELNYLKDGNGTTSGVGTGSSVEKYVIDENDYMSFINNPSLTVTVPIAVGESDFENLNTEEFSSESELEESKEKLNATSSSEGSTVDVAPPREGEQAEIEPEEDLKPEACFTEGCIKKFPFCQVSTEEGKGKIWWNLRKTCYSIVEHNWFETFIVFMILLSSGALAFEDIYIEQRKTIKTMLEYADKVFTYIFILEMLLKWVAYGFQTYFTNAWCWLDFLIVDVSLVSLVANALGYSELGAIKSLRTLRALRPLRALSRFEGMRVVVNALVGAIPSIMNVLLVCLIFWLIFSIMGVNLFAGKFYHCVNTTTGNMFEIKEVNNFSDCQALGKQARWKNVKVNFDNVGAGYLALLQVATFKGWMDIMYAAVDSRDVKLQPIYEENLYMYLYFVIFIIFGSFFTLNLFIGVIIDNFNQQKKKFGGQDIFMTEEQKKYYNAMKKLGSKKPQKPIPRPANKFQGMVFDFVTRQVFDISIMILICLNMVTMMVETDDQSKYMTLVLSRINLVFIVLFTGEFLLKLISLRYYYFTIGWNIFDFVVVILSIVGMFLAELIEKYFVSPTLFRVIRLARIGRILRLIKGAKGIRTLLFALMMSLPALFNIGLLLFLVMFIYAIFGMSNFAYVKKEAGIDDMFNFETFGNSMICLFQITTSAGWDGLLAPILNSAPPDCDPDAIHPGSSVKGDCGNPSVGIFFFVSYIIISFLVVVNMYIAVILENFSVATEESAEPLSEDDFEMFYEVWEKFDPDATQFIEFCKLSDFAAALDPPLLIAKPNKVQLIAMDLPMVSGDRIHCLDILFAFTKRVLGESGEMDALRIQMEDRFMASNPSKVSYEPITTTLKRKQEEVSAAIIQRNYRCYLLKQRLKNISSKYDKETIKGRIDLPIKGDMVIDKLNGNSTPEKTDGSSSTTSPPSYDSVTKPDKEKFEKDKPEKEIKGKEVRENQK

B1: Peptide C (peptide)
peptide: ACLGFGEKCNPSNDKCCKSSSLVCSQKHKWCKYGW
modifications: disulfide (positions not given here); not fully specified (bridges); also: three disulphide bridges, probably C1-C4, C2-C5, C3-C6
For B1, the “IC50 Nav1.3 (µM); inhibition of channel current, patch clamp” value (“IC50 Nav1.3 (µM); inhibition” for short) with rNaV1.3 channels turned out to be 1.2 µM.

B2: Peptide A (peptide)
peptide: DDCLGMFSSCDPDNDKCCEGRKCNRKDKWCKYVL-NH2
modifications: disulfide (positions not given here); not fully specified (bridges); also: three disulphide bridges, probably C1-C4, C2-C5, C3-C6
On to B2, for which, in the assay with rNaV1.8 channels, the “IC50 Nav1.8 (µM); inhibition of channel current, patch clamp” value turned out to be 2.5 µM. The “IC50 Nav1.3 (µM); inhibition” value with rNaV1.3 channels came out at 1.75 µM.

B3: Peptide F (peptide)
peptide: DCLGWFKGCDPDNDKCCEGYKCNRRDKWCKYKLW
modifications: disulfide (positions not given here); not fully specified (bridges); also: three disulphide bridges, probably C1-C4, C2-C5, C3-C6
As for B3, the “IC50 Nav1.8 (µM); inhibition of channel current, patch clamp” value in the assay with rNaV1.8 channels amounted to 0.17 µM. Besides, the “IC50 Nav1.3 (µM); inhibition” value with rNaV1.3 channels stood at 0.13 µM.

B4: Peptide B (peptide)
peptide: YCQEFLWTCDEERKCCGDMVCRLWCKKRL-NH2
modifications: disulfide (positions not given here); not fully specified (bridges); also: three disulphide bridges, probably C1-C4, C2-C5, C3-C6
Consider B4, for which the “IC50 Nav1.3 (µM); inhibition” value with rNaV1.3 channels turned out to be 0.23 µM.

For the origin of these results see patent US20110065647A1 (BIOSEARCH 2007, published 2011).
